# Assay results taken from the supplement of paper PMC9112550, “Optimization of the antimicrobial peptide Bac7 by deep mutational scanning” (BMC Biology, 2022).
# System: Escherichia coli TOP10
# Assay: shrunken log2 fold change of peptide-encoding DNA abundance (4.5 h post-induction vs induction); higher = less antimicrobial activity (less host growth inhibition)
# Conditions: time post-induction: 4.5 h; library: site-saturation at positions 5, 18, 19, 20
# 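Also: peptides expressed intracellularly from a pBAD plasmid library in pooled LB shake-flask culture, induced with 0.3% L-arabinose, DNA abundance read by NGS, three biological replicates, DESeq2 with apeglm shrinkage.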
row,Sequence,shrunken log2 fold change
1,RRIRGRPPRLPRPRPRPKTSPRP,0.702
2,RRIRHRPPRLPRPRPRPVALPRP,-0.112
3,RRIRRRPPRLPRPRPRPWSYPRP,-0.573
4,RRIRPRPPRLPRPRPRPHHPPRP,-0.224
5,RRIRYRPPRLPRPRPRPHDQPRP,-0.188
6,RRIRQRPPRLPRPRPRPADQPRP,0.012
7,RRIRHRPPRLPRPRPRPPKAPRP,0.0427
8,RRIRYRPPRLPRPRPRPIGHPRP,3.4
9,RRIRARPPRLPRPRPRPIGAPRP,0.716
10,RRIRYRPPRLPRPRPRPIQMPRP,-0.0163
11,RRIRKRPPRLPRPRPRPQFMPRP,-0.54
12,RRIRVRPPRLPRPRPRPYCHPRP,-0.0116
13,RRIRHRPPRLPRPRPRPDPGPRP,-0.199
14,RRIRTRPPRLPRPRPRPVFLPRP,-0.56
15,RRIRSRPPRLPRPRPRPSSRPRP,-0.288
16,RRIRSRPPRLPRPRPRPTGLPRP,0.127
17,RRIRYRPPRLPRPRPRPNDEPRP,-0.034
18,RRIRSRPPRLPRPRPRPPIHPRP,-0.329
19,RRIRARPPRLPRPRPRPRVPPRP,0.428
20,RRIRMRPPRLPRPRPRPMVIPRP,-0.0665
21,RRIRCRPPRLPRPRPRPSCRPRP,-0.685
22,RRIRARPPRLPRPRPRPCSCPRP,0.0516
23,RRIRQRPPRLPRPRPRPPMAPRP,0.0822
24,RRIRIRPPRLPRPRPRPYFGPRP,-0.0455
25,RRIRKRPPRLPRPRPRPNCWPRP,0.621

row,Sequence,shrunken log2 fold change
1,RRIRQRPPRLPRPRPRPDLYPRP,-0.105
2,RRIRPRPPRLPRPRPRPHRRPRP,-0.0778
3,RRIRSRPPRLPRPRPRPFFVPRP,-0.184
4,RRIRNRPPRLPRPRPRPYNIPRP,-0.13
5,RRIRTRPPRLPRPRPRPWCMPRP,-0.0742
6,RRIRSRPPRLPRPRPRPDYDPRP,-0.0947
7,RRIRRRPPRLPRPRPRPTPIPRP,1.03
8,RRIRPRPPRLPRPRPRPWKNPRP,-0.0413
9,RRIRFRPPRLPRPRPRPLHIPRP,-0.7
10,RRIRVRPPRLPRPRPRPQHTPRP,-0.0855
11,RRIRGRPPRLPRPRPRPWCMPRP,0.13
12,RRIRWRPPRLPRPRPRPIWLPRP,0.211
13,RRIRIRPPRLPRPRPRPNTRPRP,-0.507
14,RRIRMRPPRLPRPRPRPLAEPRP,3.05
15,RRIRVRPPRLPRPRPRPMLYPRP,-0.375
16,RRIRERPPRLPRPRPRPPPPPRP,0.646
17,RRIRFRPPRLPRPRPRPMGAPRP,-0.0556
18,RRIRFRPPRLPRPRPRPKATPRP,-0.061
19,RRIRSRPPRLPRPRPRPFVNPRP,-0.99
20,RRIRERPPRLPRPRPRPGVDPRP,0.114
21,RRIRNRPPRLPRPRPRPRMDPRP,-0.104
22,RRIRQRPPRLPRPRPRPKQDPRP,0.0446
23,RRIRYRPPRLPRPRPRPRRKPRP,0.0824
24,RRIRARPPRLPRPRPRPDTDPRP,0.365
25,RRIRERPPRLPRPRPRPNKFPRP,-0.143

row,Sequence,shrunken log2 fold change
1,RRIRDRPPRLPRPRPRPSIFPRP,-0.049
2,RRIRRRPPRLPRPRPRPFAQPRP,0.199
3,RRIRRRPPRLPRPRPRPSMFPRP,-0.0509
4,RRIRERPPRLPRPRPRPCSAPRP,-0.0881
5,RRIRIRPPRLPRPRPRPQRKPRP,-0.104
6,RRIRFRPPRLPRPRPRPYKWPRP,-0.298
7,RRIRTRPPRLPRPRPRPQSKPRP,-0.209
8,RRIRGRPPRLPRPRPRPAMVPRP,0.252
9,RRIRMRPPRLPRPRPRPSSCPRP,0.112
10,RRIRYRPPRLPRPRPRPDPMPRP,-0.0159
11,RRIRMRPPRLPRPRPRPDYWPRP,0.441
12,RRIRHRPPRLPRPRPRPFATPRP,0.106
13,RRIRERPPRLPRPRPRPFEGPRP,-0.105
14,RRIRMRPPRLPRPRPRPPMHPRP,0.704
15,RRIRQRPPRLPRPRPRPTQWPRP,0.571
16,RRIRSRPPRLPRPRPRPTTWPRP,0.053
17,RRIRIRPPRLPRPRPRPYNLPRP,-0.391
18,RRIRYRPPRLPRPRPRPAPHPRP,-0.247
19,RRIRQRPPRLPRPRPRPTVCPRP,0.0669
20,RRIRIRPPRLPRPRPRPLQEPRP,-0.0919
21,RRIRHRPPRLPRPRPRPDRIPRP,-0.495
22,RRIRCRPPRLPRPRPRPYNTPRP,-0.91
23,RRIRGRPPRLPRPRPRPQQVPRP,0.564
24,RRIRPRPPRLPRPRPRPKPHPRP,0.294
25,RRIRQRPPRLPRPRPRPSQQPRP,0.0129

row,Sequence,shrunken log2 fold change
1,RRIRGRPPRLPRPRPRPHSPPRP,0.289
2,RRIRQRPPRLPRPRPRPSPAPRP,0.611
3,RRIRDRPPRLPRPRPRPIVNPRP,-0.0751
4,RRIRDRPPRLPRPRPRPPHLPRP,0.0118
5,RRIRRRPPRLPRPRPRPGAGPRP,0.475
6,RRIRQRPPRLPRPRPRPPRDPRP,1.25
7,RRIRKRPPRLPRPRPRPFQYPRP,-0.284
8,RRIRLRPPRLPRPRPRPPHYPRP,0.0636
9,RRIRDRPPRLPRPRPRPGEGPRP,1.41
10,RRIRERPPRLPRPRPRPEGYPRP,-0.00062
11,RRIRKRPPRLPRPRPRPSGVPRP,0.005
12,RRIRARPPRLPRPRPRPMYWPRP,-0.0443
13,RRIRCRPPRLPRPRPRPFESPRP,0.0262
14,RRIRYRPPRLPRPRPRPVDYPRP,-0.213
15,RRIRPRPPRLPRPRPRPMKNPRP,0.212
16,RRIRTRPPRLPRPRPRPKRCPRP,0.0203
17,RRIRDRPPRLPRPRPRPLQIPRP,-0.21
18,RRIRSRPPRLPRPRPRPVFGPRP,0.0263
19,RRIRQRPPRLPRPRPRPVQQPRP,0.142
20,RRIRDRPPRLPRPRPRPREQPRP,1.36
21,RRIRMRPPRLPRPRPRPAVPPRP,0.328
22,RRIRSRPPRLPRPRPRPWNLPRP,-1.05
23,RRIRGRPPRLPRPRPRPKFCPRP,0.23
24,RRIRNRPPRLPRPRPRPDTQPRP,-0.149
25,RRIRCRPPRLPRPRPRPIQCPRP,-0.14

row,Sequence,shrunken log2 fold change
1,RRIRIRPPRLPRPRPRPEVMPRP,-0.195
2,RRIRVRPPRLPRPRPRPIPVPRP,-0.363
3,RRIRMRPPRLPRPRPRPWTQPRP,-0.0562
4,RRIRWRPPRLPRPRPRPSGQPRP,-0.0599
5,RRIRCRPPRLPRPRPRPVWVPRP,0.195
6,RRIRTRPPRLPRPRPRPCTIPRP,-0.456
7,RRIRKRPPRLPRPRPRPYSGPRP,-0.839
8,RRIRRRPPRLPRPRPRPHGVPRP,0.055
9,RRIRKRPPRLPRPRPRPMLFPRP,0.315
10,RRIRVRPPRLPRPRPRPQVRPRP,0.0179
11,RRIRQRPPRLPRPRPRPFDAPRP,-0.0632
12,RRIRQRPPRLPRPRPRPISKPRP,-0.0725
13,RRIRRRPPRLPRPRPRPRNTPRP,0.436
14,RRIRCRPPRLPRPRPRPCPNPRP,-0.14
15,RRIRLRPPRLPRPRPRPSPRPRP,0.307
16,RRIRWRPPRLPRPRPRPNYHPRP,-0.486
17,RRIRRRPPRLPRPRPRPTMKPRP,0.286
18,RRIRHRPPRLPRPRPRPSMPPRP,-0.0929
19,RRIRRRPPRLPRPRPRPCLHPRP,0.0897
20,RRIRMRPPRLPRPRPRPQRMPRP,0.583
21,RRIRPRPPRLPRPRPRPQAEPRP,0.113
22,RRIRQRPPRLPRPRPRPRCFPRP,-0.0694
23,RRIRERPPRLPRPRPRPNLDPRP,-0.289
24,RRIRHRPPRLPRPRPRPTEHPRP,-0.243
25,RRIRWRPPRLPRPRPRPFENPRP,-0.15

row,Sequence,shrunken log2 fold change
1,RRIRLRPPRLPRPRPRPMICPRP,0.13
2,RRIRERPPRLPRPRPRPVLVPRP,-0.0151
3,RRIRTRPPRLPRPRPRPGPGPRP,0.484
4,RRIRTRPPRLPRPRPRPCRYPRP,0.0413
5,RRIRRRPPRLPRPRPRPWIHPRP,-0.147
6,RRIRLRPPRLPRPRPRPLQNPRP,0.166
7,RRIRKRPPRLPRPRPRPVDPPRP,0.417
8,RRIRWRPPRLPRPRPRPMAEPRP,0.203
9,RRIRPRPPRLPRPRPRPVRQPRP,0.219
10,RRIRARPPRLPRPRPRPNRSPRP,-0.229
11,RRIRTRPPRLPRPRPRPYVFPRP,-0.394
12,RRIRLRPPRLPRPRPRPWSYPRP,-1.41
13,RRIRLRPPRLPRPRPRPRETPRP,-0.0213
14,RRIRIRPPRLPRPRPRPMVAPRP,-0.14
15,RRIRERPPRLPRPRPRPINSPRP,-0.157
16,RRIRKRPPRLPRPRPRPDNPPRP,-0.0237
17,RRIRGRPPRLPRPRPRPWYMPRP,0.0753
18,RRIRDRPPRLPRPRPRPPSMPRP,-0.147
19,RRIRRRPPRLPRPRPRPDDMPRP,-0.039
20,RRIRERPPRLPRPRPRPMIGPRP,0.015
21,RRIRKRPPRLPRPRPRPKWMPRP,-0.168
22,RRIRGRPPRLPRPRPRPYVEPRP,-0.00776
23,RRIRTRPPRLPRPRPRPNPPPRP,0.199
24,RRIRCRPPRLPRPRPRPHYGPRP,-0.189
25,RRIRDRPPRLPRPRPRPGDRPRP,-0.00192
